What was measured:
[1] = biological target: T1, human c-Met (Sino Biological) (human, UniProt P08581 25-932, limits assumed); test: SPR (Biacore T200), IgG captured on Protein A CM5 chip, c-Met 0.15-2 nM as analyte
T1 construct: Analyte in the Biacore assay; also called antigen (c-Met); printed as "human c-Met antibody (Sino Biological, Beijing, China)"
Procedure: (§1) The candidate antibodies selected in Example 4 were measured for binding affinity for the antigen (c-Met) with the aid of Biacore. […] The anti-c-Met antibodies to be analyzed were immobilized on Protein A CM5 chips (GE Healthcare, Little Chalfont, UK) through which human c-Met antibody (Sino Biological, Beijing, China) with various concentrations ranging 0.15 to 2 nM was allowed to pass, thereby acquiring sensorgrams. On the basis of the acquired sensorgrams, association constants kₒₙ and dissociation constants koff were measured to calculate Ko value, the ratio koff/kₒₙ.

[2] = biological target: c-Met protein receptors on HUVEC (human, UniProt P08581 25-1390); test: cell-based or functional assay
[3] = biological target: T1, human c-Met (Sino Biological); test: derived from the Biacore KD, normalised to VH0/Vk0
Procedure: as §1
(§2) In order to select a final candidate group from the 21 candidate antibodies selected in Example 4, comparison was made according to criteria specified into expression level, binding affinity for antigen, thermal stability, and biopotency. As a rule, the expression level is considered to be the most important index when time and cost are taken into consideration from a point of view of production. […] Thereafter, degrees of improvement in each of the remaining candidate antibodies compared to the reference antibody (VH0/Vk0) were digitized with regard to the selected indices. For normalization, analysis index measurements for individual candidate antibodies were divided by average values to give ratios (index 1) which were in turn divided by the measurement for the antibody VH0/Vk0 (index 2) (Tables 6 to 9). In addition, the measurements for the four indices were multiplied for comprehensive comparison of the four indices of the candidate antibodies. The final results (index 3) are listed in a descending order in Table 10.

[4] = biological target: T1, human c-Met (Sino Biological); test: derived from the Biacore KD, printed 'Average' 3.52 x10^-10 M divided by the KD
Procedure: as §1, §2

T1 sequence (P08581 25-932 limits assumed): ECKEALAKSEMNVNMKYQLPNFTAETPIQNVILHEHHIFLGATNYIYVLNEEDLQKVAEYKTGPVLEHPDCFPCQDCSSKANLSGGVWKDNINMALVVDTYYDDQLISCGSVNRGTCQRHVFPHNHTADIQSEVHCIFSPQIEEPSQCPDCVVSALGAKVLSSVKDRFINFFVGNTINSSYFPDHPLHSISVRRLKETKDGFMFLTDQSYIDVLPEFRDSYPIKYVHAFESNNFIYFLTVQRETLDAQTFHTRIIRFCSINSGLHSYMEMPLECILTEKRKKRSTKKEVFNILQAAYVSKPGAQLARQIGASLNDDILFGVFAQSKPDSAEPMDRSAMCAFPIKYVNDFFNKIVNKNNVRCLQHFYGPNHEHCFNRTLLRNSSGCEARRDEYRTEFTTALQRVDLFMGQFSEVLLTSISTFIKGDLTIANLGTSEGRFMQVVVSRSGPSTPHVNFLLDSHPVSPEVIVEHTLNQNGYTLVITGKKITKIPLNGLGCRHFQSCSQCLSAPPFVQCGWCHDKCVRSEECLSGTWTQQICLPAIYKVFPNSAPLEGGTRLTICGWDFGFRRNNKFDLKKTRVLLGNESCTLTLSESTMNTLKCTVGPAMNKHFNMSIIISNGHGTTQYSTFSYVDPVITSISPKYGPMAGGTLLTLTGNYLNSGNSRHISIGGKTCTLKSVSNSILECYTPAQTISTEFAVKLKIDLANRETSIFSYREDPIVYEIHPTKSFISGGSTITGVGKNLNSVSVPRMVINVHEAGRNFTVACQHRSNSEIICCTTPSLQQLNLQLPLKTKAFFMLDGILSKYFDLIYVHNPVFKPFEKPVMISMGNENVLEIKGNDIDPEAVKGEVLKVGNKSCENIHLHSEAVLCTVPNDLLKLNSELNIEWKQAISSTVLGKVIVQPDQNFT
Sequence of c-Met protein receptors on HUVEC (P08581 25-1390): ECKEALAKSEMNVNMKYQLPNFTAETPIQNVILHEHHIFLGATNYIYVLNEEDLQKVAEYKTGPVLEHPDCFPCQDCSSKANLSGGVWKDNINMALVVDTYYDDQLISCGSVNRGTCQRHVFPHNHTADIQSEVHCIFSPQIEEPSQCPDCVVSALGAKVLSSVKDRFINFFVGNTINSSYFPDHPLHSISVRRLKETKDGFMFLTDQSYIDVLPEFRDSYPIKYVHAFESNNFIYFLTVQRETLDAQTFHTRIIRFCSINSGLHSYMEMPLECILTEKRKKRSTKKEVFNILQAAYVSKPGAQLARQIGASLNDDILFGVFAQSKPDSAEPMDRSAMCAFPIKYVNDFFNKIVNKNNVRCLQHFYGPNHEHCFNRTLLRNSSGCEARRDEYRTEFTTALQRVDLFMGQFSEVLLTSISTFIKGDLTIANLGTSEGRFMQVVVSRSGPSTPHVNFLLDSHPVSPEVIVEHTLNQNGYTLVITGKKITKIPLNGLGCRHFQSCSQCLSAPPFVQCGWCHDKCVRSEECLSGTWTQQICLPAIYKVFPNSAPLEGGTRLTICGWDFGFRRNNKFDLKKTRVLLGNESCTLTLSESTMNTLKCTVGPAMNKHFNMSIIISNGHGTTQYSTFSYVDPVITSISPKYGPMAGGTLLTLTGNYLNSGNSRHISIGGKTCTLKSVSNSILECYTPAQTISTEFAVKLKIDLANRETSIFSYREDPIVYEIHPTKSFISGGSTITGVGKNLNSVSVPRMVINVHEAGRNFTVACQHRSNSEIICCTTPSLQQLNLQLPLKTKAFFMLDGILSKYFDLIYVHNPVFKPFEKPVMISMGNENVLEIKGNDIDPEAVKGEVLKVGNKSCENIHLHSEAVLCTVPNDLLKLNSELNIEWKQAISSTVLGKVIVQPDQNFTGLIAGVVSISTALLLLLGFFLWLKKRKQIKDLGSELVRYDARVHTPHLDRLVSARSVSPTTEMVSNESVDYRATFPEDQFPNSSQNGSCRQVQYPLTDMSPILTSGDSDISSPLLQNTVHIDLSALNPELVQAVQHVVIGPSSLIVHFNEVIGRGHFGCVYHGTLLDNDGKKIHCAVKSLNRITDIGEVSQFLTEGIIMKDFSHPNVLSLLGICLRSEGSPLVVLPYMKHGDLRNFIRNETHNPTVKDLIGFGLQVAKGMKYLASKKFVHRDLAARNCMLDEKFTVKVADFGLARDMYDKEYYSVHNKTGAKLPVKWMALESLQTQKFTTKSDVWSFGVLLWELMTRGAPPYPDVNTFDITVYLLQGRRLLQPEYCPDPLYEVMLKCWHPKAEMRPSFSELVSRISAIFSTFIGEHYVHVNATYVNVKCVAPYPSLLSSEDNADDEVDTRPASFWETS

Row | Binder | Kd [1] [nM] | Relative KD to VMDO2 VH0/Vk0 [1] | Index 1 (Relative Migration divided by the Average 157.5), HUVEC migration assay [2] | Index 2 (Relative Migration relative to VH0/Vk0), HUVEC migration assay [2] | Relative Migration (%), HUVEC migration assay, 90 ng/ml [2] [%] | Index 2 (binding affinity, inverse KD relative to VH0/Vk0) [3] | Index 1 (binding affinity, inverse KD relative to the Average 3.52) [4]
1 | VH2/Vk5 (antibody, IgG1, V domains shown, Full IgG1/kappa expressed in HEK 293 EBNA cells) VH: EVQLVQSGAEVKKPGESLKISCKGSGYSFPTHWITWVRQMPGKGLEWMGTIDPTDSYNFYGPSFQGQVTISADKSISTAYLQWSSLKASDTAMYYCARDGNYYDSRGYYYDTFDMWGQGTLVTVSS VL: EIVLTQSPGTLSLSPGERATLSCRASQGISTYLAWYQQKPGQAPRLLIYSASTLESGIPDRFSGSGSGTDFTLTISRLEPEDFATYYCQQADSFPLTFGGGTKVEIK | 0.685 | 1.32 | – | – | – | – | –
2 | VH4/Vk2 (antibody, IgG1, V domains shown, Full IgG1/kappa expressed in HEK 293 EBNA cells) VH: QVQLVQSGAEVKKPGSSVKVSCQGSGYSFPTHWITWVRQAPGQGLEWMGTIDPTDSYNFYGPSFQGRVTITADSSTSTAYMELSSLRSEDTAMYYCARDGNYYDSRGYYYDTFDMWGQGTLVTVSS VL: DIQMTQSPSSLSASVGDRVTITCRASQGISTYLAWYQQKPGKAPKLLIYSASTLESGVPSRFSGSGSGTDFTLTISSLQPEDFATYYCQQADSFPLTFGGGTKVEIK | 0.423 | 0.81 | 1.13 | 1.19 | 177 | 1.23 | 0.832
3 | VH5/Vk4 (antibody, IgG1, V domains shown, Full IgG1/kappa expressed in HEK 293 EBNA cells) VH: QVQLVQSGAEVKKPGSSVKVSCQGSGYSFPTHWITWVRQAPGQGLEWMGTIDPTDSYNFYGPSFQGRVTITADSSTSTAYMELSSLRSEDTAVYYCARDGNYYDSRGYYYDTFDMWGQGTLVTVSS VL: EIQMTQSPGTLSLSPGERATLSCRASQGISTYLAWYQQKPGQAPRLLIYSASTLESGVPDRFSGSGSGTDFTLTISRLEPEDFATYYCQQADSFPLTFGGGTKVEIK | 0.349 | 0.67 | – | – | – | – | –
4 | VH4/Vk3 (antibody, IgG1, V domains shown, Full IgG1/kappa expressed in HEK 293 EBNA cells) VH: QVQLVQSGAEVKKPGSSVKVSCQGSGYSFPTHWITWVRQAPGQGLEWMGTIDPTDSYNFYGPSFQGRVTITADSSTSTAYMELSSLRSEDTAMYYCARDGNYYDSRGYYYDTFDMWGQGTLVTVSS VL: DIQMTQSPGFLSLSPGERATLSCRASQGISTYLAWYQQKPGQAPRLLIYSASTLESGVPDRFSGSGSGTDFTLTISRLEPEDFATYYCQQADSFPLTFGGGTKVEIK | 0.422 | 0.81 | – | – | – | – | –
5 | VH6/Vk5 (antibody, IgG1, V domains shown, Full IgG1/kappa expressed in HEK 293 EBNA cells) VH: QVQLVQSGAEVKKPGSSVKVSCKASGYSFPTHWITWVRQAPGQGLEWMGTIDPTDSYNFYGPSFQGRVTITADKSTSTAYMELSSLRSEDTAVYYCARDGNYYDSRGYYYDTFDMWGQGTLVTVSS VL: EIVLTQSPGTLSLSPGERATLSCRASQGISTYLAWYQQKPGQAPRLLIYSASTLESGIPDRFSGSGSGTDFTLTISRLEPEDFATYYCQQADSFPLTFGGGTKVEIK | 0.557 | 1.07 | – | – | – | – | –
6 | VH5/Vk2 (antibody, IgG1, V domains shown, Full IgG1/kappa expressed in HEK 293 EBNA cells) VH: QVQLVQSGAEVKKPGSSVKVSCQGSGYSFPTHWITWVRQAPGQGLEWMGTIDPTDSYNFYGPSFQGRVTITADSSTSTAYMELSSLRSEDTAVYYCARDGNYYDSRGYYYDTFDMWGQGTLVTVSS VL: DIQMTQSPSSLSASVGDRVTITCRASQGISTYLAWYQQKPGKAPKLLIYSASTLESGVPSRFSGSGSGTDFTLTISSLQPEDFATYYCQQADSFPLTFGGGTKVEIK | 0.42 | 0.81 | 1.12 | 1.18 | 176 | 1.24 | 0.838
7 | VH3/Vk2 (antibody, IgG1, V domains shown, Full IgG1/kappa expressed in HEK 293 EBNA cells) VH: QVQLVQSGAEVKKPGSSVKVSCQGSGYSFPTHWITWVRQAPGQGLEWMGTIDPTDSYNFYGPSFQGRVTITADSSTSTAYLQWSSLKASDTAMYYCARDGNYYDSRGYYYDTFDMWGQGTLVTVSS VL: DIQMTQSPSSLSASVGDRVTITCRASQGISTYLAWYQQKPGKAPKLLIYSASTLESGVPSRFSGSGSGTDFTLTISSLQPEDFATYYCQQADSFPLTFGGGTKVEIK | 0.477 | 0.92 | 1.04 | 1.09 | 164 | 1.09 | 0.738
8 | VH6/Vk3 (antibody, IgG1, V domains shown, Full IgG1/kappa expressed in HEK 293 EBNA cells) VH: QVQLVQSGAEVKKPGSSVKVSCKASGYSFPTHWITWVRQAPGQGLEWMGTIDPTDSYNFYGPSFQGRVTITADKSTSTAYMELSSLRSEDTAVYYCARDGNYYDSRGYYYDTFDMWGQGTLVTVSS VL: DIQMTQSPGFLSLSPGERATLSCRASQGISTYLAWYQQKPGQAPRLLIYSASTLESGVPDRFSGSGSGTDFTLTISRLEPEDFATYYCQQADSFPLTFGGGTKVEIK | 0.431 | 0.83 | – | – | – | – | –
9 | VH4/Vk0 (antibody, IgG1, V domains shown, Full IgG1/kappa expressed in HEK 293 EBNA cells) VH: QVQLVQSGAEVKKPGSSVKVSCQGSGYSFPTHWITWVRQAPGQGLEWMGTIDPTDSYNFYGPSFQGRVTITADSSTSTAYMELSSLRSEDTAMYYCARDGNYYDSRGYYYDTFDMWGQGTLVTVSS VL: DIQMTQSPSFLSASVGDRVTITCRASQGISTYLAWYQQKPGTAPKLLIYSASTLESGVPSRFSGSGSGTDFTLTISSLQPEDSATYYCQQADSFPLTFGGGTKVEIK | 0.395 | 0.76 | 0.773 | 0.812 | 122 | 1.32 | 0.891
10 | VH4/Vk4 (antibody, IgG1, V domains shown, Full IgG1/kappa expressed in HEK 293 EBNA cells) VH: QVQLVQSGAEVKKPGSSVKVSCQGSGYSFPTHWITWVRQAPGQGLEWMGTIDPTDSYNFYGPSFQGRVTITADSSTSTAYMELSSLRSEDTAMYYCARDGNYYDSRGYYYDTFDMWGQGTLVTVSS VL: EIQMTQSPGTLSLSPGERATLSCRASQGISTYLAWYQQKPGQAPRLLIYSASTLESGVPDRFSGSGSGTDFTLTISRLEPEDFATYYCQQADSFPLTFGGGTKVEIK | 0.372 | 0.72 | – | – | – | – | –
11 | VH5/Vk5 (antibody, IgG1, V domains shown, Full IgG1/kappa expressed in HEK 293 EBNA cells) VH: QVQLVQSGAEVKKPGSSVKVSCQGSGYSFPTHWITWVRQAPGQGLEWMGTIDPTDSYNFYGPSFQGRVTITADSSTSTAYMELSSLRSEDTAVYYCARDGNYYDSRGYYYDTFDMWGQGTLVTVSS VL: EIVLTQSPGTLSLSPGERATLSCRASQGISTYLAWYQQKPGQAPRLLIYSASTLESGIPDRFSGSGSGTDFTLTISRLEPEDFATYYCQQADSFPLTFGGGTKVEIK | 0.506 | 0.97 | – | – | – | – | –
12 | VH6/Vk4 (antibody, IgG1, V domains shown, Full IgG1/kappa expressed in HEK 293 EBNA cells) VH: QVQLVQSGAEVKKPGSSVKVSCKASGYSFPTHWITWVRQAPGQGLEWMGTIDPTDSYNFYGPSFQGRVTITADKSTSTAYMELSSLRSEDTAVYYCARDGNYYDSRGYYYDTFDMWGQGTLVTVSS VL: EIQMTQSPGTLSLSPGERATLSCRASQGISTYLAWYQQKPGQAPRLLIYSASTLESGVPDRFSGSGSGTDFTLTISRLEPEDFATYYCQQADSFPLTFGGGTKVEIK | 0.391 | 0.75 | – | – | – | – | –
13 | VH5/Vk3 (antibody, IgG1, V domains shown, Full IgG1/kappa expressed in HEK 293 EBNA cells) VH: QVQLVQSGAEVKKPGSSVKVSCQGSGYSFPTHWITWVRQAPGQGLEWMGTIDPTDSYNFYGPSFQGRVTITADSSTSTAYMELSSLRSEDTAVYYCARDGNYYDSRGYYYDTFDMWGQGTLVTVSS VL: DIQMTQSPGFLSLSPGERATLSCRASQGISTYLAWYQQKPGQAPRLLIYSASTLESGVPDRFSGSGSGTDFTLTISRLEPEDFATYYCQQADSFPLTFGGGTKVEIK | 0.402 | 0.77 | – | – | – | – | –
14 | VH5/Vk0 (antibody, IgG1, V domains shown, Full IgG1/kappa expressed in HEK 293 EBNA cells) VH: QVQLVQSGAEVKKPGSSVKVSCQGSGYSFPTHWITWVRQAPGQGLEWMGTIDPTDSYNFYGPSFQGRVTITADSSTSTAYMELSSLRSEDTAVYYCARDGNYYDSRGYYYDTFDMWGQGTLVTVSS VL: DIQMTQSPSFLSASVGDRVTITCRASQGISTYLAWYQQKPGTAPKLLIYSASTLESGVPSRFSGSGSGTDFTLTISSLQPEDSATYYCQQADSFPLTFGGGTKVEIK | 0.352 | 0.68 | 0.813 | 0.855 | 128 | 1.48 | 1
